Test results as given in patent US20200353049A1.
Values joined by “and” are separate entries in the source; they are usually repeats but may differ in a detail not shown here. Equal entries are not always repeated.

Assays:
[1] = molecular target: IL-22R1a extracellular domain (ECD) (UniProt Q8N6P7); assay: binding ELISA on plate-coated IL-22R1a ECD, relative to Reference Standard (100%); T=0
[2] = molecular target: IL-22R1a extracellular domain (ECD) (UniProt Q8N6P7); assay: potency assay (binding ELISA on plate-coated IL-22R1a ECD), relative to reference standard (100%); stored 5 C, 48 months
[3] = molecular target: IL-22R1a extracellular domain (ECD) (UniProt Q8N6P7); assay: potency assay (binding ELISA on plate-coated IL-22R1a ECD); change after 2 weeks at 40 C; this end matches Clinical Batch 3 in Table 26 (85 to 57)
[4] = molecular target: IL-22R1a extracellular domain (ECD) (UniProt Q8N6P7); assay: binding ELISA on plate-coated IL-22R1a ECD, relative to Reference Standard (100%); stored -20 C, 3 months
[5] = molecular target: IL-22R1a extracellular domain (ECD) (UniProt Q8N6P7); assay: binding ELISA on plate-coated IL-22R1a ECD, relative to Reference Standard (100%); stored 5 C, 1 month
[6] = molecular target: IL-22R1a extracellular domain (ECD) (UniProt Q8N6P7); assay: potency assay (binding ELISA on plate-coated IL-22R1a ECD), relative to reference standard (100%); stored 5 C, 6 months
[7] = molecular target: IL-22R1a extracellular domain (ECD) (UniProt Q8N6P7); assay: potency assay (binding ELISA on plate-coated IL-22R1a ECD), relative to reference standard (100%); stored 5 C, 24 months
[8] = molecular target: IL-22R1a extracellular domain (ECD) (UniProt Q8N6P7); assay: potency assay (binding ELISA on plate-coated IL-22R1a ECD), relative to reference standard (100%); stored 5 C, 42 months
[9] = molecular target: IL-22R1a extracellular domain (ECD) (UniProt Q8N6P7); assay: potency assay (binding ELISA on plate-coated IL-22R1a ECD), relative to reference standard; 40 C stress, day 0
[10] = molecular target: IL-22R1a extracellular domain (ECD) (UniProt Q8N6P7); assay: potency assay (binding ELISA on plate-coated IL-22R1a ECD), relative to reference standard (100%); T=0
[11] = molecular target: IL-22R1a extracellular domain (ECD) (UniProt Q8N6P7); assay: binding ELISA on plate-coated IL-22R1a ECD, relative to Reference Standard (100%); stored -20 C, 12 months
[12] = molecular target: IL-22R1a extracellular domain (ECD) (UniProt Q8N6P7); assay: potency assay (binding ELISA on plate-coated IL-22R1a ECD); change after 6 months at 25 C (supportive stability study)
[13] = molecular target: IL-22R1a extracellular domain (ECD) (UniProt Q8N6P7); assay: potency assay (binding ELISA on plate-coated IL-22R1a ECD), relative to reference standard (100%); stored 25 C, 6 months
[14] = molecular target: IL-22R1a extracellular domain (ECD) (UniProt Q8N6P7); assay: potency assay (binding ELISA on plate-coated IL-22R1a ECD), relative to reference standard (100%); stored 5 C, 48 months; remark: listed apart in the source
[15] = molecular target: IL-22R1a extracellular domain (ECD) (UniProt Q8N6P7); assay: potency assay (binding ELISA on plate-coated IL-22R1a ECD), relative to reference standard (100%); stored 5 C, 9 months
[16] = molecular target: IL-22R1a extracellular domain (ECD) (UniProt Q8N6P7); assay: binding ELISA on plate-coated IL-22R1a ECD, relative to Reference Standard (100%); stored 5 C, 6 months
[17] = molecular target: IL-22R1a extracellular domain (ECD) (UniProt Q8N6P7); assay: binding ELISA on plate-coated IL-22R1a ECD, relative to Reference Standard (100%); stored -20 C, 6 months
[18] = molecular target: IL-22R1a extracellular domain (ECD) (UniProt Q8N6P7); assay: potency assay (binding ELISA on plate-coated IL-22R1a ECD), relative to reference standard (100%); stored 5 C, 18 months
[19] = molecular target: IL-22R1a extracellular domain (ECD) (UniProt Q8N6P7); assay: binding ELISA on plate-coated IL-22R1a ECD, relative to Reference Standard (100%); stored -20 C, 12 months; remark: listed apart in the source
[20] = molecular target: IL-22R1a extracellular domain (ECD) (UniProt Q8N6P7); assay: binding ELISA on plate-coated IL-22R1a ECD, relative to Reference Standard (100%); stored -20 C, 60 months
[21] = molecular target: IL-22R1a extracellular domain (ECD) (UniProt Q8N6P7); assay: binding ELISA on plate-coated IL-22R1a ECD, relative to Reference Standard (100%); stored -20 C, 9 months
[22] = molecular target: IL-22R1a extracellular domain (ECD) (UniProt Q8N6P7); assay: potency assay (binding ELISA on plate-coated IL-22R1a ECD), relative to reference standard (100%); stored 5 C, 6 months; remark: listed apart in the source
[23] = molecular target: IL-22R1a extracellular domain (ECD) (UniProt Q8N6P7); assay: binding ELISA on plate-coated IL-22R1a ECD, relative to Reference Standard (100%); stored -20 C, 30 months
[24] = molecular target: IL-22R1a extracellular domain (ECD) (UniProt Q8N6P7); assay: binding ELISA on plate-coated IL-22R1a ECD, relative to Reference Standard (100%); stored -20 C, 18 months
[25] = molecular target: IL-22R1a extracellular domain (ECD) (UniProt Q8N6P7); assay: potency assay (binding ELISA on plate-coated IL-22R1a ECD), relative to reference standard (100%); stored 5 C, 12 months
[26] = molecular target: IL-22R1a extracellular domain (ECD) (UniProt Q8N6P7); assay: potency assay (binding ELISA on plate-coated IL-22R1a ECD), relative to reference standard (100%); stored 5 C, 42 months; remark: listed apart in the source
[27] = molecular target: IL-22R1a extracellular domain (ECD) (UniProt Q8N6P7); assay: potency assay (binding ELISA on plate-coated IL-22R1a ECD), relative to reference standard (100%); stored 5 C, 30 months
[28] = molecular target: IL-22R1a extracellular domain (ECD) (UniProt Q8N6P7); assay: potency assay (binding ELISA on plate-coated IL-22R1a ECD), relative to reference standard (100%); stored 25 C, 1 month

Chain of UniProt Q8N6P7 (Q8N6P7 16-228 limits assumed): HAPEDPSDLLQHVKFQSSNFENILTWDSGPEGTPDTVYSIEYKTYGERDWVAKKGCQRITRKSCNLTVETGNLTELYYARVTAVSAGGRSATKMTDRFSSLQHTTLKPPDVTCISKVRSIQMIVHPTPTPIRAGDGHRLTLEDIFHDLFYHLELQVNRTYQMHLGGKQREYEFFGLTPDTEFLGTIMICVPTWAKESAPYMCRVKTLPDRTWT

IL-22 Fc fusion protein showed a Potency by Binding Assay (% relative potency) (% relative potency) [1] of 71, a Potency (% relative potency) (% relative potency) [2] of 65 and a decrease in % relative potency (% relative potency) [3] of 28. It also gave a Potency by Binding Assay (% relative potency) (% relative potency) [4] of 72, a Potency by Binding Assay (% relative potency) (% relative potency) [5] of 73 and a Potency (% relative potency) (% relative potency) [6] of 64. The Potency (% relative potency) (% relative potency) [7] was 66, the Potency (% relative potency) (% relative potency) [8] was 87 and the Potency (% relative potency) (% relative potency) [9] was 104 and 85. It also gave a Potency (% relative potency) (% relative potency) [10] of 101, a Potency by Binding Assay (% relative potency) (% relative potency) [11] of 91 and a loss of % relative potency (% relative potency) [12] of 29. The Potency (% relative potency) (% relative potency) [13] was 47, the Potency (% relative potency) (% relative potency) [14] was 91 and the Potency (% relative potency) (% relative potency) [15] was 63. For the same substance, the Potency by Binding Assay (% relative potency) (% relative potency) [16] was 98, the Potency by Binding Assay (% relative potency) (% relative potency) [17] was 112 and the Potency (% relative potency) (% relative potency) [18] was 93. For the same substance, the Potency by Binding Assay (% relative potency) (% relative potency) [19] was 69, the Potency by Binding Assay (% relative potency) (% relative potency) [20] was 99 and the Potency by Binding Assay (% relative potency) (% relative potency) [21] was 68. It also gave a Potency (% relative potency) (% relative potency) [22] of 100, a Potency by Binding Assay (% relative potency) (% relative potency) [23] of 70 and a Potency by Binding Assay (% relative potency) (% relative potency) [24] of 101. It also gave a Potency (% relative potency) (% relative potency) [25] of 67, a Potency (% relative potency) (% relative potency) [26] of 59 and a Potency (% relative potency) (% relative potency) [27] of 65. The Potency (% relative potency) (% relative potency) [28] was 68.
